According to patent publication US11702666B2, “Cell-based assay for determining activity in the retinoblastoma pathway” (Medical Diagnostic Laboratories, LLC, priority 2017, dated 2023):
Changes are numbered by the printed parent chain. Names may count otherwise. “Also recorded” adds a separate entry of the source.

B1: CDK4 K22M: CDK4 mutant from COSMIC database (protein, UniProt P11802 2-303, looked up, variant K22M)
Cyclin-dependent kinase 4: ATSRYEPVAEIGVGAYGTVYMARDPHSGHFVALKSVRVPNGGGGGGGLPISTVREVALLRRLEAFEHPNVVRLMDVCATSRTDREIKVTLVFEHVDQDLRTYLDKAPPPGLPAETIKDLMRQFLRGLDFLHANCIVHRDLKPENILVTSGGTVKLADFGLARIYSYQMALTPVVVTLWYRAPEVLLQSTYATPVDMWSVGCIFAEMFRRKPLFCGNSEADQLGKIFDLIGLPPEDDWPRDVSLPRGAFPPRGPRPVQSVVPEMEESGAQLLLEMLTFNPHKRISAFRALQHSYLHKDEGNPE
B2: CDK4 R210Q: CDK4 mutant from COSMIC database (protein, UniProt P11802 2-303, looked up, variant R210Q)
Cyclin-dependent kinase 4: B1 Cyclin-dependent kinase 4 with M21K, R209Q
B3: CDK4 D158Y: CDK4 mutant from COSMIC database (protein, UniProt P11802 2-303, looked up, variant D158Y)
Cyclin-dependent kinase 4: B1 Cyclin-dependent kinase 4 with M21K, D157Y
B4: CDK4 K35M: CDK4 mutant, literature kinase dead (protein, UniProt P11802 2-303, looked up, variant K35M)
Cyclin-dependent kinase 4: B1 Cyclin-dependent kinase 4 with M21K, K34M
B5: CDK4 R24S: CDK4 mutant from COSMIC database (protein, UniProt P11802 2-303, looked up, variant R24S)
Cyclin-dependent kinase 4: B1 Cyclin-dependent kinase 4 with M21K, R23S
B6: CDK4 K155Q: CDK4 mutant from COSMIC database (protein, UniProt P11802 2-303, looked up, variant K155Q)
Cyclin-dependent kinase 4: B1 Cyclin-dependent kinase 4 with M21K, K154Q
B7: CDK4 S285C: CDK4 mutant from COSMIC database (protein, UniProt P11802 2-303, looked up, variant S285C)
Cyclin-dependent kinase 4: B1 Cyclin-dependent kinase 4 with M21K, S284C
B8: CDK4 K35R: CDK4 mutant from COSMIC database (protein, UniProt P11802 2-303, looked up, variant K35R)
Cyclin-dependent kinase 4: B1 Cyclin-dependent kinase 4 with M21K, K34R
B9: CDK4 L161L: CDK4 silent variant (C-T) from COSMIC database (protein, UniProt P11802 2-303, looked up)
Cyclin-dependent kinase 4: B1 Cyclin-dependent kinase 4 with M21K
modifications: silent L161L nucleotide variant
notes: CDK4 silent variant (C-T) from COSMIC database
B10: CDK4 V137I: CDK4 mutant from COSMIC database (protein, UniProt P11802 2-303, looked up, variant V137I)
Cyclin-dependent kinase 4: B1 Cyclin-dependent kinase 4 with M21K, V136I
B11: CDK4 D158N: CDK4 mutant, literature kinase dead (protein, UniProt P11802 2-303, looked up, variant D158N)
Cyclin-dependent kinase 4: B1 Cyclin-dependent kinase 4 with M21K, D157N
B12: Rb R661W: known Rb null mutant (protein, UniProt P06400 2-928, looked up, variant R661W)
Retinoblastoma-associated …: PPKTPRKTAATAAAAAAEPPAPPPPPPPEEDPEQDSGPEDLPLVRLEFEETEEPDFTALCQKLKIPDHVRERAWLTWEKVSSVDGVLGGYIQKKKELWGICIFIAAVDLDEMSFTFTELQKNIEISVHKFFNLLKEIDTSTKVDNAMSRLLKKYDVLFALFSKLERTCELIYLTQPSSSISTEINSALVLKVSWITFLLAKGEVLQMEDDLVISFQLMLCVLDYFIKLSPPMLLKEPYKTAVIPINGSPRTPRRGQNRSARIAKQLENDTRIIEVLCKEHECNIDEVKNVYFKNFIPFMNSLGLVTSNGLPEVENLSKRYEEIYLKNKDLDARLFLDHDKTLQTDSIDSFETQRTPRKSNLDEEVNVIPPHTPVRTVMNTIQQLMMILNSASDQPSENLISYFNNCTVNPKESILKRVKDIGYIFKEKFAKAVGQGCVEIGSQRYKLGVRLYYRVMESMLKSEEERLSIQNFSKLLNDNIFHMSLLACALEVVMATYSRSTSQNLDSGTDLSFPWILNVLNLKAFDFYKVIESFIKAEGNLTREMIKHLERCEHRIMESLAWLSDSPLFDLIKQSKDREGPTDHLESACPLNLPLQNNHTAADMYLSPVRSPKKKGSTTRVNSTANAETQATSAFQTQKPLKSTSLSLFYKKVYRLAYLWLNTLCERLLSEHPELEHIIWTLFQHTLQNEYELMRDRHLDQIMMCSMYGICKVKNIDLKFKIIVTAYKDLPHAVQETFKRVLIKEEEYDSIIVFYNSVFMQRLKTNILQYASTRPPTLSPIPHIPRSPYKFPSSPLRIPGGNIYISPLKSPYKISEGLPTPTKMTPRSRILVSIGESFGTSEKFQKINQMVCNSDRVLKRSAEGSNPPKPLKKLRFDIEGSDEADGSKHLPGESKFQQKLAEMTSTRTRMQKQKMNDSMDTSNKEEK
B13: Rb C706F: known Rb null mutant (protein, UniProt P06400 2-928, looked up, variant C706F)
Retinoblastoma-associated …: B12 Retinoblastoma-associated … with W660R, C705F

Assays:
Rb/E2F1-Dp-1 complex = assay: CDK4 mutant activity / drug resistance in NanoBiT assay, stable cell line #11; assay type: cell-based, human; settings: CDK4 mutants, compared to the WT (being 100%)
Method: A linear expression cassette of mutated CDK4 or CDK6 was generated by PCR mediated overlapping extension method. A pair of forward and reverse primers containing the targeted mutations was designed. The mutated codon was located in the middle of a primer flanked by 18-21 nucleotides on each side. Two PCRs (named as PCR #1 and PCR #2 in FIG. 1) were performed using UF-CMV forward and mutated reverse primers, or mutated forward and BGH-UR primers. The PCR products were cleaned up by ExoSAP-IT® (Affymetrix) to remove unconsumed dNTPs and primers. The treated PCR products were mixed together followed by dilution with water. A second round of PCR was performed using the diluted PCR mixture, and the UF and UR primers (FIG. 1). The amplified products were gel-purified. The DNA concentration was quantitated by the optical density at 260 nm using Nanodrop. The targeted mutations were incorporated in the CDK4 or CDK6 genes during the PCR mediated overlapping extension method. The introduced mutations were confirmed by the DNA sequencing.
To examine the ability of the assay to detect variants in CDK4 or CDK6 that affect function, kinase dead mutants and COSMIC (Catalogue Of Somatic Mutations in cancer) unknown mutants were created. For comparison, hyperactive CDK4 or CDK6 mutants known to be hyperactive due to less binding to natural inhibitor p16 were also created. The mutations in CDK4 or CDK6 were created by site-directed mutagenesis. WT or mutated CDK4 or CDK6 along with the CyclinD1 and SB-Rb were co-transfected, under similar conditions as previously indicated (see FIG. 9).
To examine the specificity of the assay, particular CDK4 kinase dead mutants were created. Modifications to D158 were made by changing aspartate to nonpolar alanine (D158A) or positively charged arginine (D158R). […] The mutations in CDK4 were created by site-directed mutagenesis. WT or mutated CDK4 along with the CyclinD1 and SB-Rb was co-transfected into the #11 cell line, under the same conditions as previously indicated. […] Kinase dead mutants have the high signal due to inability to phosphorylate Rb.
Computer modeling was used to reveal the drug-binding pocket and predict drug-resistant mutants. The mutations in CDK4 and CDK6 were created by site-directed mutagenesis. WT or mutated CDK4 or CDK6 along with the CyclinD1 and SB-Rb was co-transfected into #11 cell line, under the same conditions as previously indicated. […] Dose response curves are presented on FIG. 13A and FIG. 13B. Activity of other mutants was very similar to the WT or KD.
CDK4 and CDK6 mutants with known function and unknown function taken from the COSMIC database were analyzed in the present assay and are summarized in Table 7A and Table 7B. The mutants were classified according to their activity. Table 7A and Table 7B also show the number of counts per mutant in the COSMIC database, type of cancer, and luciferase activity compared to the WT (being 100%).

E2F1/Dp-1 heterodimer = assay: Rb activity assay (LB-Rb with E2F1-SB, DP1 split luciferase); assay type: cell-based, human; set-up: key to Observed activity: N—no activity; A—active as WT; R—reduced activity compared to the WT; settings: for luciferase activity / E2F1 interaction of Rb mutant: LB-Rb and E2F1-SB with Dp-1; for Observed activity / % (/wt): Rb mutants; for % (/wt): activity relative to WT
E2F1/Dp-1 heterodimer, sequence (Q01094 58-437 limits assumed): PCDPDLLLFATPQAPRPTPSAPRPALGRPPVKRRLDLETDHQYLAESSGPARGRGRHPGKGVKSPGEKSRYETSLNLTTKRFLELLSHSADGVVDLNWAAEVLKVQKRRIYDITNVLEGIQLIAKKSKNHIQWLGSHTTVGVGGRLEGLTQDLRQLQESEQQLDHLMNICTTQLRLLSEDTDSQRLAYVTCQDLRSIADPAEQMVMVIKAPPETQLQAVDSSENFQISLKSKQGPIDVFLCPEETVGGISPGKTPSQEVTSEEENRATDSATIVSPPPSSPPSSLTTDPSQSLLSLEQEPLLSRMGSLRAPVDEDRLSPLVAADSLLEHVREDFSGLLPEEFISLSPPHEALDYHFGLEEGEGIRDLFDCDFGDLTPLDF
E2F1/Dp-1 heterodimer, sequence (Q14186 whole entry, further chain): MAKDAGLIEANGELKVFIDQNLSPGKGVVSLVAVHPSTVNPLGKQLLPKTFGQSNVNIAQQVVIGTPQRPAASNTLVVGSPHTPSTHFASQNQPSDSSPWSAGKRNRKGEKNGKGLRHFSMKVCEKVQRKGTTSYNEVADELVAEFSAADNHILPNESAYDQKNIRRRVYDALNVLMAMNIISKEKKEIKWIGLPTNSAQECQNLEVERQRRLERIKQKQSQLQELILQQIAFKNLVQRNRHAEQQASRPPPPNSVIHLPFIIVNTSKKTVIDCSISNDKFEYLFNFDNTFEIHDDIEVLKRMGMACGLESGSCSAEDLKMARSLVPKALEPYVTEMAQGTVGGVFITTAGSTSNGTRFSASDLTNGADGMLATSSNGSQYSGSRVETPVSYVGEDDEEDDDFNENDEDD
Description: An assay that could measure the interaction between Rb, E2F1, and Dp-1 was developed. Since Dp-1 forms a heterodimer with E2F1 and that interaction is crucial for Rb/E2F1 binding, the assay was comprised of three components. When two proteins (Rb and E2F1) are in close proximity or in complex, a light signal was observed. For the purposes of the current assay, split-luciferase complementation was used to measure the interaction between Rb and E2F1. The NanoBiT assay system by Promega (Madison, Wis.; Dixon et al., 2015, ACS ChemBiol) was used in our split luciferase complementation design.
FIG. 16 depicts the design of a signal system to measure Rb activity. Under basal conditions inside the cell, Rb was active and interacted with the E2F1/Dp-1 heterodimer. For this assay design, cDNAs of Rb linked to different parts of the luciferase protein, either termed as the “Small BiT” (SB), or “Large BiT” (LB) and E2F1 linked to the opposite portion of the luciferase protein were created. When Rb and E2F1/Dp-1 bind, the NanoBiT parts of the luciferase form a complex and emitted a light signal when the luciferase (NanoGlo) substrate was added.
Using the described assay design, HEK293 CDK DKO cells were transiently transfected with different combinations of SB-Rb or LB-Rb and E2F1-LB or E2F1-SB components containing C-terminal and N-terminal constructs (FIG. 17). Relative intensities generated are presented in FIG. 17 as relative luminescence units (RLU). The data represents a sample experiment where each condition was performed in triplicate and represent mean+SD.
The LB-Rb and E2F1-SB with Dp-1 were tested for Rb activity using known Rb null mutants: R661W and C706F (FIG. 18A). […] Rb in-frame (del35) and out-of frame (del1) deletion mutants (FIG. 18B) were constructed and the observed luciferase activity was close to 0, in particular for del1 mutant, because Rb-E2F1 binding was destroyed.
Within the provided assay design, stable cell lines using the HEK293 CDK DKO cell parent line expressing E2F1-SB and Dp-1 were produced. After selection and screening for positive clones using an LB-Rb-mediated increase in signal, four stable single cell clones were selected and evaluated using different Rb mutants (FIGS. 19A and 19B). The response to E2F1 interaction was also checked by using the plasmid and linear form of DNA. Cell line #37 was selected for all our experiments in assay development due to its favorable response.
The conditions of the assay were further optimized by analyzing different cell numbers and Rb concentrations (FIG. 20). Based on the data, it was decided to use 0.2×10^6 cells/ml and 70 ng of DNA in the assay.
Known null and out/in-frame deletion mutants disrupting E2F1 binding and unknown COSMIC mutants were created to examine the ability of the assay to detect variants in Rb that affect function. We transfected WT or mutated Rb using similar conditions as previously indicated (FIG. 20). […] In addition, the null C706F and deletion (del1) mutants presented a signal close to zero as expected for loss of function mutants that disrupt E2F1 interaction. […] This confirmed that the assay was capable of determining the relative activity level of Rb mutants. The data is provided in Luminescence (RLU) of a single experiment with each condition performed in triplicate and represent average+SD.

| Molecule | Luc. activity (/wt) (Rb/E2F1-Dp-1 complex) [%] | other results |
| --- | --- | --- |
| B1 | 141 | – |
| B2 | 74.5 | – |
| B3 | 230 | – |
| B4 | 350 | – |
| B5 | 117 | – |
| B6 | 130 | – |
| B7 | 125 | – |
| B8 | 310 | – |
| B9 | 59 | – |
| B10 | 120 | – |
| B11 | 300 | – |
| B12 | – | luciferase activity / E2F1 interaction of Rb mutant (E2F1/Dp-1 heterodimer): completely disrupted the E2F1 interaction; Observed activity (E2F1/Dp-1 heterodimer): N; % (/wt) (E2F1/Dp-1 heterodimer): 5.2% |
| B13 | – | luciferase activity / E2F1 interaction of Rb mutant (E2F1/Dp-1 heterodimer): completely disrupted the E2F1 interaction; also recorded: close to zero; Observed activity (E2F1/Dp-1 heterodimer): N; % (/wt) (E2F1/Dp-1 heterodimer): 5.5% |
